Reference: article doi:10.1101/2021.02.22.432116 (bioRxiv, 2021)
Where a chain is given by its changes, count along the chain named. In names and notes the source's numbering stands. Several values for one entry are separate records, joined by “and”; a condition that tells them apart may be missing. Equal entries are not always repeated. Where two headings read alike, the source gives them in different places.

B1: UBQLN2 UBL domain (UBQLN2 1-107) (domain or fragment, human, UniProt Q9UHD9 1-107, looked up)
chain: MAENGESSGPPRPSRGPAAAQGSAAAPAEPKIIKVTVKTPKEKEEFAVPENSSVQQFKEAISKRFKSQTDQLVLIFAGKILKDQDTLIQHGIHDGLTVHLVIKSQNR
B2: UBQLN2 UBL I80A (domain or fragment, human, UniProt Q9UHD9 1-107, looked up)
chain: B1 chain with I80A
B3: UBQLN2 248-576 (domain or fragment, human, UniProt Q9UHD9 248-576, looked up)
chain: MRNQDLALSNLESIPGGYNALRRMYTDIQEPMLNAAQEQFGGNPFASVGSSSSSGEGTQPSRTENRDPLPNPWAPPPATQSSATTSTTTSTGSGSGNSSSNATGNTVAAANYVASIFSTPGMQSLLQQITENPQLIQNMLSAPYMRSMMQSLSQNPDLAAQMMLNSPLFTANPQLQEQMRPQLPAFLQQMQNPDTLSAMSNPRAMQALMQIQQGLQTLATEAPGLIPSFTPGVGVGVLGTAIGPVGPVTPIGPIGPIVPFTPIGPIGPIGPTGPAAPPGSTGSGGPTGPTVSSAAPSETTSPTSESGPNQQFIQQMVQALAGANAPQLP
B4: UBQLN2 109-576 (domain or fragment, human, UniProt Q9UHD9 109-576, looked up)
chain: QGQSTQPSNAAGTNTTSASTPRSNSTPISTNSNPFGLGSLGGLAGLSSLGLSSTNFSELQSQMQQQLMASPEMMIQIMENPFVQSMLSNPDLMRQLIMANPQMQQLIQRNPEISHLLNNPDIMRQTLEIARNPAMMQEMMRNQDLALSNLESIPGGYNALRRMYTDIQEPMLNAAQEQFGGNPFASVGSSSSSGEGTQPSRTENRDPLPNPWAPPPATQSSATTSTTTSTGSGSGNSSSNATGNTVAAANYVASIFSTPGMQSLLQQITENPQLIQNMLSAPYMRSMMQSLSQNPDLAAQMMLNSPLFTANPQLQEQMRPQLPAFLQQMQNPDTLSAMSNPRAMQALMQIQQGLQTLATEAPGLIPSFTPGVGVGVLGTAIGPVGPVTPIGPIGPIVPFTPIGPIGPIGPTGPAAPPGSTGSGGPTGPTVSSAAPSETTSPTSESGPNQQFIQQMVQALAGANAPQLP
B5: UBQLN2 UBA domain (UBQLN2 571-624) (domain or fragment, human, UniProt Q9UHD9 571-624, looked up)
chain: NAPQLPNPEVRFQQQLEQLNAMGFLNREANLQALIATGGDINAAIERLLGSQPS

How the values were obtained:
Assay in all cases: NMR titration
UBQLN2 109-576 [1] = biological target: B4
UBQLN2 178-576 = UBQLN2 178-576 (human, UniProt Q9UHD9 178-576)
UBQLN2 248-576 = biological target: B3
UBQLN2 379-576 = UBQLN2 379-576 (human, UniProt Q9UHD9 379-576)
UBQLN2 109-576 [2] = biological target: B4; remark: listed apart in the source
[3] = biological target: B1
[4] = biological target: B5
[5] = biological target: B1; remark: listed apart in the source

Binder: B1
binding result (UBQLN2 109-576 [1]): binds
binding result (UBQLN2 178-576): binds
binding result (UBQLN2 248-576): binds
binding result (UBQLN2 379-576): binds

Binder: B2
binding result (UBQLN2 109-576 [2]): binds

Binder: B3
UBL peak intensity relative to isolated UBL [3]: 70%

Binder: B4
UBA peak intensity relative to isolated UBA [4]: 60%

Binder: B5
Kd [5]: 178 µM and 210 µM
